# Measured values published in publication PMC11178655, “Dosimetry and pharmacokinetics of [^177Lu]Lu-satoreotide tetraxetan in patients with progressive neuroendocrine tumours” (European Journal of Nuclear Medicine and Molecular Imaging, 2024).
# Where a SMILES comes first, the peptide text is derived from it. Bridges are numbered along the chain shown (N, C = ends). [ ]: non-standard residue; d: D form. The star is where a group is joined. DOTA = O=C(O)CN1CCN(CC(=O)O)CCN(CC(=O)*)CCN(CC(=O)O)CC1; dPhe(4-NHCONH2) = NC(=O)Nc1ccc(C[C@@H](N)C(=O)O)cc1; Dihydroorotyl(S) = O=C1C[C@@H](C(=O)*)NC(=O)N1; Phe(4-Cl) = N[C@@H](Cc1ccc(Cl)cc1)C(=O)O; Phe(4-NH2) = Nc1ccc(C[C@H](N)C(=O)O)cc1
# Columns and labels:
# [1] = system: patients with progressive, SSTR-positive NETs; experiment: Blood-based bone marrow dosimetry (part A); assay type: in vivo, human; settings: cycles 1–3, 11 evaluated patients, median
# Protocol: (§1) To generate pharmacokinetic data, blood samples (2 mL) were taken at the stop of infusion (0 min) and 5, 30, and 60 min, 4 h, and 1, 2, 3, and 6 days after the end of each [^177Lu]Lu-satoreotide tetraxetan administration. Urine samples were collected over three intervals within 48 h (0–6 h, 6–24 h, and 24–48 h in part A; 0–4 h, 4–24 h, and 24–48 h in part B) following the first treatment cycle of [^177Lu]Lu-satoreotide tetraxetan. Total activity concentrations in whole blood and urine were determined locally, using a gamma counter calibrated for lutetium-177. In two selected study centres, additional blood samples (2 mL) were collected at 1 min, 4 h, and 1, 2, 3, and 6 days after each [^177Lu]Lu-satoreotide tetraxetan administration to evaluate potential radioactive metabolites in plasma.
# Patient-specific dosimetry calculations were performed after each treatment cycle in both parts A and B, using the absorbed dose calculation features of the NUKDOS software for image-based dosimetry calculations. The NUKDOS software was chosen as it allowed for an integral approach to organ dosimetry (including image quantification, time-activity curve-fitting and dosimetry calculation). For the bone marrow, both image-based and blood-based calculations were performed in part A [28, 29]. In part B, only image-based bone marrow dosimetry was performed. […]
# [2] = system: patients with progressive, SSTR-positive NETs; experiment: Time-activity curves of whole body and organs (planar whole-body imaging, SPECT/CT); assay type: in vivo, human; settings: first treatment cycle, parts A and B; median
# Protocol: In both parts A and B of the study, patients underwent planar whole-body imaging at 4 h and 1, 2, 3, and 6 days after each [^177Lu]Lu-satoreotide tetraxetan treatment cycle. Patients in part A also underwent single-photon emission computed tomography/computed tomography (SPECT/CT) at 24 h after each [^177Lu]Lu-satoreotide tetraxetan cycle. Those in part B underwent SPECT/CT, immediately before or after planar scintigraphy, at 4 h, and 1, 2, 3, and 6 days after each [^177Lu]Lu-satoreotide tetraxetan administration. Full details of the image acquisition methodology are provided in the Supplementary Information. Reconstruction parameters were set up to produce isotropic voxels of < 5 mm; voxels were continuous throughout the field of view. Anatomic coverage of the acquisition was determined according to the patients’ tumour locations on the planar whole-body scan acquisition with liver, both kidneys and spleen in the same bed position. […] VOIs for the same organs were drawn for all SPECT/CT images acquired in part B. All ROIs/VOIs were then used for activity quantification. […] Full details of the tumour delineation and activity quantification methodology are provided in the Supplementary Information.
# [3] = Blood pharmacokinetics (total activity in whole blood, gamma counter); assay type: in vivo, human; settings: first treatment cycle
# Protocol: as §1
# [4] = system: patients with progressive, SSTR-positive NETs; settings: cited from earlier work
# Source text: Here, we fully explore the biodistribution and dosimetry of [^177Lu]Lu-satoreotide tetraxetan in a dosage-finding, phase I/II study (NCT02592707; registered October 30, 2015) of 40 patients with progressive, SSTR-positive NETs treated with [^177Lu]Lu-satoreotide tetraxetan. A plain language summary of this publication can be found in the Supplementary Information. […] Acute haematological toxicity may be a dose-limiting factor for [^177Lu]Lu-satoreotide tetraxetan, and for ^177Lu-labelled somatostatin analogues in general. There is limited correlation between absorbed radiation doses to the bone marrow and development of haematologic toxicity. Therefore, it is important to carefully monitor hematological parameters during ...
# [5] = system: patients with progressive NETs; settings: cited from earlier work
# Source text: A novel radiolabelled SSTR antagonist, [^177Lu]Lu-satoreotide tetraxetan (also known as [^177Lu]^177Lu-SSO110, [^177Lu]^177Lu-IPN01072, [^177Lu]^177Lu-OPS201 or [^177Lu]^177Lu-DOTA-JR11), has recently shown a favourable pharmacokinetic and biodistribution profile, as ... || In the present study, we observed tumour ADCs of 5.0 Gy/GBq after cycle 1 and 4.0 Gy/GBq after cycle 3. These tumour ADCs are consistent with previously reported findings from a direct comparison of [^177Lu]Lu-satoreotide tetraxetan and [^177Lu]Lu-DOTA-TATE in the same tumours and patients in a cross-over design, which reported median tumour dose of [^177Lu]Lu-satoreotide tetraxetan of 7.0 Gy/GBq (range: 4.2–29 Gy/GBq), 3.5 times greater than the median tumour dose of [^177Lu]Lu-DOTA-TATE [22]. However, it should be noted that median tumour dose in this pilot study was calculated from a limi ...
# [6] = on average, single mean activity 1.0 GBq vs 1.1 GBq, four patients
structure (smiles),measurement,setting,value
"C[C@@H](O)[C@@H]1NC(=O)[C@H](CCCCN)NC(=O)[C@@H](Cc2ccc(NC(N)=O)cc2)NC(=O)[C@H](Cc2ccc(NC(=O)[C@@H]3CC(=O)NC(=O)N3)cc2)NC(=O)[C@H](NC(=O)[C@H](Cc2ccc(Cl)cc2)NC(=O)CN2CCN(CC(=O)O)CCN(CC(=O)O)CCN(CC(=O)O)CC2)CSSC[C@@H](C(=O)N[C@H](Cc2ccc(O)cc2)C(N)=O)NC1=O [[^177Lu]Lu-satoreotide tetraxetan, metal not drawn] ({DOTA}-[Phe(4-Cl)][dC][Phe(4-NH2)](Dihydroorotyl(S))[dPhe(4-NHCONH2)]KTC[dY]-NH2; disulfide 2-7 (inferred); C-terminus assumed)","Cumulative absorbed dose, bone marrow, blood-based method",[1],0.3 Gy
same,Whole body uptake at 6 days,[2],11.5 % administered activity
same,"Extrapolated area under the concentration-time curve (AUC0–infinity), mean",[3],742.0 ± 303.0 MBq.h/L
same,"Terminal blood half-life, mean ± SD",[3]; gamma counter,110.0 ± 50.1 h
same,"Terminal blood half-life, median",[3]; gamma counter,127 h
same,Blood uptake at 1–5 minutes (peak),[3]; median,3.03 % administered activity/L
same,Grade 3/4 kidney toxicity,[4]; 40 patients,no reported grade 3/4 kidney toxicity
same,Grade 3/4 treatment-related lymphopenia,[4]; 40 patients,7.5 % of patients
same,Disease control rate at 12 months,[4],94.7%
same,Median tumour dose,"[5]; cross-over design, 13 lesions in 4 patients",7.0 Gy/GBq
same,Tumour absorbed dose compared with [^177Lu]Lu-DOTA-TATE,[5]; [6],three-fold higher
same,Tumour-to-kidney absorbed dose ratio compared with [^177Lu]Lu-DOTA-TATE,[5]; [6],two-fold higher
same,Median tumour dose relative to [^177Lu]Lu-DOTA-TATE,"[5]; same tumours and patients, cross-over",3.5 times
